Laboratory results reported in patent US20240150460A1 (SHENGHE CHINA BIOPHARMACEUTICAL, published 2024).

Experiments:
NKp30 on NK cells [1] = target: T1, NKp30 on NK cells (UniProt O14931 19-201, limits assumed); experiment: flow cytometry (y axis MFI, x axis in nM); the legend of FIGS. 3a-3h names a stable expression cell line; fit value of a flat curve, far outside the range tested
T1 sequence (looked up): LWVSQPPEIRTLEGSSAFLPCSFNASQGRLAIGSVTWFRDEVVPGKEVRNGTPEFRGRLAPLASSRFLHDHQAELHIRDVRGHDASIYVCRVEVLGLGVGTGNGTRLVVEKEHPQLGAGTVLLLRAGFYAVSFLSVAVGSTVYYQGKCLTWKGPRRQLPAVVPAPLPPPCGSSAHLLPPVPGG

NKp30 on NK cells [2] = target: T1, NKp30 on NK cells; experiment: cell-based or functional assay
[3] = target: T2, human NKp30-his protein (KACTUS; Cat: NKP-HM430) (human, UniProt O14931 19-135, limits assumed); experiment: ELISA, Human-NKp30-His coated at 0.2 µg/mL, antibody from 10 µg/mL in 3-fold steps, goat anti-human Fc, OD450 (Example 11)
T2 construct: Bought protein (KACTUS NKP-HM430); not shown: His tag
T2 sequence (looked up): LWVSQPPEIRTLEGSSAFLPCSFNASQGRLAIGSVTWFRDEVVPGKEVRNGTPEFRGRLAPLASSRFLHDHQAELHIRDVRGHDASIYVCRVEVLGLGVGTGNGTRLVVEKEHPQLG
Protocol: (§1) Human-NKp30-His (purchased from KACTUS, item No. NKP-HM430) was diluted to 0.2 μg/mL with the coating solution (1×PBS, pH 7.4), and was coated into 96-well enzyme-labelled plates at 100 μL/well and allowed to stand overnight at 4° C. The coating solution was poured off, the plate was washed with 1×PBST at 300 μL/well, washed with a plate washer for 4 times, and patted dry on a plate paper. The plate was blocked with 3% skimmed milk powder at 300 μL/well, and incubated at 37° C. for 1 h. The blocking solution was poured off, washed with a plate washer for 4 times, and patted dry on a plate paper. The reference product and the test product were diluted with 3% skimmed milk powder to 10 μg/mL, and the initial concentration was diluted by 3 times. A total of 11 gradients were diluted, and another blank well was set, and only diluent was added. It was incubated at 37° C. and 100 μL/well for 1 h. Liquid in the wells was discarded, and washed with a plate washer for 4 times, and patted dry on a plate paper. The goat anti-human Fc was diluted with 3% skimmed milk powder at 1: 20,000 and 100 μL/well, and incubated at 37° C. for 1 h. The plate was washed with a plate washer for 6 times, and patted dry on a plate paper. TMB color developing solution was added at 100 μL/well, and wrapped with an aluminum foil, and the color was developed at 37° C. for 8 minutes, protected from light. The termination solution 1 M HCl was added at 100 μL/well to terminate the color development reaction. It was read at 450 nm on an enzyme-labeled instrument.

[4] = target: T2, human NKp30-his protein (KACTUS; Cat: …); experiment: as above; remark: listed apart in the source
Protocol: as §1, with “TMB color developing solution was added at 100 μL/well, and wrapped with an aluminum foil, and the color was developed at 37° C. for 8 minutes, protected from light. The termination solution 1 M HCl was added at 100 μL/well to terminate the color development reaction.” left out

[5] = target: T2, human NKp30-his protein (KACTUS; Cat: …); experiment: BLI (Octet Red96e), antibody captured on AHC sensor, 100 nM human NKp30-his in solution, 1:1 fit
Protocol: (§2) After equilibration of the AHC sensor with 0.02% PBST (0.02% Tween 20, pH 7.4, 1*PBS) as buffer for 60 s, the NKp30 antibody in the sample plate was immobilized for 300 s and second equilibration was performed for 180 s. […] human NKp30-his protein (KACTUS; Cat: NKP-HM430) was bound with NKp30 antibody for 300 s and then dissociated for 600 s. After dissociation, 10 mM glycine (pH 2.0) was used as regeneration buffer to regenerate for 30 s.
Subtract the result plot for reference channel H1 from the test result plot. The experimental data fit the 1:1 binding model. The molecular weight of 35 kDa was used to calculate the molar concentration of human NKp30 protein.

[6] = target: T2, human NKp30-his protein (KACTUS; Cat: …); experiment: BLI (Octet Red96e), method of Example 6: antibody on AHC sensor, human NKp30-his in solution; second run, Table 4 (Example 12 series with the CDR-modified and humanized variants)
Protocol: as §2
(§3) The affinity of the CDR-modified and humanized antibodies was tested according to the method of Example 6, and the results are shown in Table 4.

NKp30 on NK cells [7] = target: T1, NKp30 on NK cells; experiment: flow cytometry (y axis MFI, x axis in nM); the legend of FIGS. 3a-3h names a stable expression cell line; Example 11 describes no cell assay
[8] = target: T2, human NKp30-his protein (KACTUS; Cat: …); experiment: ELISA, Human-NKp30-His coated at 0.2 µg/mL, antibody from 10 µg/mL in 3-fold steps, goat anti-human Fc, OD450 (Example 11); remark: listed apart in the source
Protocol: as §1

[9] = target: T2, human NKp30-his protein (KACTUS; Cat: …); experiment: BLI (Octet Red96e), method of Example 6: antibody on AHC sensor, human NKp30-his in solution
Protocol: as §2, §3

[10] = target: T2, human NKp30-his protein (KACTUS; Cat: …); experiment: ELISA, Human-NKp30-His coated at 0.2 µg/mL, antibody from 10 µg/mL in 3-fold steps, goat anti-human Fc, OD450 (Example 11); the fit value lies above the highest concentration tested
Protocol: as §1, with “TMB color developing solution was added at 100 μL/well, and wrapped with an aluminum foil, and the color was developed at 37° C. for 8 minutes, protected from light. The termination solution 1 M HCl was added at 100 μL/well to terminate the color development reaction.” left out

[11] = target: T2, human NKp30-his protein (KACTUS; Cat: …); experiment: ELISA, Human-NKp30-His coated at 0.2 µg/mL, antibody from 10 µg/mL in 3-fold steps, goat anti-human Fc, OD450 (Example 11); the curve stays low: fitted plateau about OD450 0.25, highest point about 0.4 at 3.3 µg/mL, about 0.2 at 10 µg/mL
Protocol: as §1, with “TMB color developing solution was added at 100 μL/well, and wrapped with an aluminum foil, and the color was developed at 37° C. for 8 minutes, protected from light. The termination solution 1 M HCl was added at 100 μL/well to terminate the color development reaction.” left out

isotype control antibody
EC50 (NKp30 on NK cells [1]): 241000 nM

B1: antibody 18-hu3 (antibody, V domains shown)
VH: EVQLVESGGGLVQPGGSLRLSCAASGIRFSIANMGWYRQAPGKLHEMVAGITSDGFTNYADSVKGRFTISRDNSKNTLYLQMNSLRAEDTAVYYCASFPTRHYWGQGTLVTVSS
notes: also called humanized antibody 18-hu3
IFN-γ secretion by NK cells stimulated with plate-coated antibody, EC50 (NKp30 on NK cells [2]): 8.83 nM
EC50 [3]: 8.48 ng/mL

B2: antibody 18-hu4 (antibody, V domains shown)
VH: EVQLVESGGGLVQPGGSLRLSCAASGIRFSIANMGWYRQAPGKLHEMVAGITSDGFTNYADSVKGRFTISRDNSKNTLYLQMNSLRAEDTAVYYCDSFPTRHYWGQGTLVTVSS
EC50 [4]: 17 ng/mL

B3: antibody 18 (antibody, V domains shown)
VH: EVQLVESGGGLVQPGGSLRLSCAAAGIRFSIANMGWYRQAPGKLHEMVAGITSDGFTNYADSVKGRFTISRDNAKNTVYLQMNNLKPEDTAVYYCDSFPTRHYWGQGTQVTVSS
notes: expressed in CHO cells; also called chimeric antibody 18
EC50 [4]: 3.62 ng/mL
EC50 [3]: 2.51 ng/mL
Kd [5]: 0.302 nM

B4: antibody 23 (antibody, V domains shown)
VH: EVQLVESGGGLVQPGGSLRLSCAASGSIFSPNGIGWYRQAPGKLRELVAGITGNGLTDYADSVKGRFTISRDSAKNTVYLQMNSLKTEDTAVYYCNLLLNHAEWGQGTQVTVSS
notes: expressed in CHO cells; also called chimeric antibody 23
Kd [6]: 0.844 nM
EC50 (NKp30 on NK cells [7]): 0.658 nM
EC50 [8]: 2.38 ng/mL
EC50 [3]: 7.46 ng/mL
EC50 (read off the curve) [3]: ~7 ng/mL
Kd [5]: 2.34 nM

B5: antibody 23-hu44 (antibody, V domains shown)
VH: EVQLVESGGGLVQPGGSLRLSCAASGSIFSPNGIGWYRQAPGKGRELVSGITGNGLTDYAESVKGRFTISRDNSKNTVYLQMNSLRAEDTAVYYCALLLNHAEWGQGTLVTVSS
Kd [9]: 1.3 nM

B6: antibody 23-p (antibody, V domains shown)
VH: EVQLVESGGGLVQPGGSLRLSCAASGSIFSPNGIGWYRQAPGKLRELVAGITGNGLTDYAESVKGRFTISRDSAKNTVYLQMNSLKTEDTAVYYCNLLLNHAEWGQGTQVTVSS
EC50 (NKp30 on NK cells [7]): 0.493 nM
Kd [9]: 1.27 nM

B7: antibody 23-hu48 (antibody, V domains shown)
VH: EVQLVESGGGLVQPGGSLRLSCAASGSIFSPNAIGWYRQAPGKGRELVSGITGNGLTDYAESVKGRFTISRDNSKNTVYLQMNSLRAEDTAVYYCALLLNHAEWGQGTLVTVSS
EC50 [10]: 76200 ng/mL
Kd [9]: 5.1 nM

B8: antibody 23-hu49 (antibody, V domains shown)
VH: EVQLVESGGGLVQPGGSLRLSCAASGSIFSPNAIGWYRQAPGKLRELVAGITGNGLTDYAESVKGRFTISRDNSKNTVYLQMNSLRAEDTAVYYCNLLLNHAEWGQGTLVTVSS
EC50 [8]: 2.27 ng/mL

B9: antibody 23-hu45 (antibody, V domains shown)
VH: EVQLVESGGGLVQPGGSLRLSCAASGSIFSPNGIGWYRQAPGKLRELVAGITGNGLTDYAESVKGRFTISRDNSKNTVYLQMNSLRAEDTAVYYCNLLLNHAEWGQGTLVTVSS
EC50 [8]: 2.83 ng/mL
EC50 (read off the curve) [3]: ~3 ng/mL
Kd [9]: 0.991 nM

B10: antibody 23-hu52 (antibody, V domains shown)
VH: EVQLVESGGGLVQPGGSLRLSCAASGSIFSPQGIGWYRQAPGKGRELVSGITGNGLTDYAESVKGRFTISRDNSKNTVYLQMNSLRAEDTAVYYCALLLNHAEWGQGTLVTVSS
EC50 [11]: 230 ng/mL
Kd [9]: 5.93 nM
